{"source": "patent US20170189519A1", "experiment_in_all_cases": "ELISA, coated CR6261, P. pastoris medium", "conditions_in_all_cases": "remark: other sources report otherwise", "key": {"[1]": {"biological_target": "112F3 (influenza A H1N1 A/Brisbane/59/2007)"}, "[2]": {"biological_target": "123G2 (influenza A H1N1 A/Brisbane/59/2007)"}, "[3]": {"biological_target": "126C3 (influenza A H1N1 A/Brisbane/59/2007)"}, "[4]": {"biological_target": "129C2 (influenza A H1N1 A/Brisbane/59/2007)"}, "[5]": {"biological_target": "134D3 (influenza A H1N1 A/Brisbane/59/2007)"}, "[6]": {"biological_target": "137C11 (influenza A H1N1 A/Brisbane/59/2007)"}, "[7]": {"biological_target": "145C9 (influenza A H1N1 A/Brisbane/59/2007)"}, "[8]": {"biological_target": "145E7 (influenza A H1N1 A/Brisbane/59/2007)"}, "[9]": {"biological_target": "145E8 (influenza A H1N1 A/Brisbane/59/2007)"}, "[10]": {"biological_target": "171E5 (influenza A H1N1 A/Brisbane/59/2007)"}, "[11]": {"biological_target": "181H9 (influenza A H1N1 A/Brisbane/59/2007)"}, "[12]": {"biological_target": "182C6 (influenza A H1N1 A/Brisbane/59/2007)"}, "[13]": {"biological_target": "187C6 (influenza A H1N1 A/Brisbane/59/2007)"}, "[14]": {"biological_target": "188C8 (influenza A H1N1 A/Brisbane/59/2007)"}, "[15]": {"biological_target": "188F4 (influenza A H1N1 A/Brisbane/59/2007)"}, "[16]": {"biological_target": "192C4 (influenza A H1N1 A/Brisbane/59/2007)"}, "[17]": {"biological_target": "193B6 (influenza A H1N1 A/Brisbane/59/2007)"}, "[18]": {"biological_target": "194C8 (influenza A H1N1 A/Brisbane/59/2007)"}, "[19]": {"biological_target": "194E4 (influenza A H1N1 A/Brisbane/59/2007)"}, "[20]": {"biological_target": "199F3 (influenza A H1N1 A/Brisbane/59/2007)"}, "[21]": {"biological_target": "204C5 (influenza A H1N1 A/Brisbane/59/2007)"}, "[22]": {"biological_target": "20688 (influenza A H1N1 A/Brisbane/59/2007)"}, "[23]": {"biological_target": "213B2 (influenza A H1N1 A/Brisbane/59/2007)"}, "[24]": {"biological_target": "216E5 (influenza A H1N1 A/Brisbane/59/2007)"}, "[25]": {"biological_target": "218G11 (influenza A H1N1 A/Brisbane/59/2007)"}, "[26]": {"biological_target": "230G9 (influenza A H1N1 A/Brisbane/59/2007)"}, "[27]": {"biological_target": "233F11 (influenza A H1N1 A/Brisbane/59/2007)"}, "[28]": {"biological_target": "244B8 (influenza A H1N1 A/Brisbane/59/2007)"}, "[29]": {"biological_target": "24782 (influenza A H1N1 A/Brisbane/59/2007)"}, "[30]": {"biological_target": "252B8 (influenza A H1N1 A/Brisbane/59/2007)"}, "[31]": {"biological_target": "25304 (influenza A H1N1 A/Brisbane/59/2007)"}, "[32]": {"biological_target": "266A11 (influenza A H1N1 A/Brisbane/59/2007)"}, "[33]": {"biological_target": "301F11 (influenza A H1N1 A/Brisbane/59/2007)"}, "[34]": {"biological_target": "304G11 (influenza A H1N1 A/Brisbane/59/2007)"}, "[35]": {"biological_target": "307A10 (influenza A H1N1 A/Brisbane/59/2007)"}}, "data": [{"binder": "CR6261 (antibody, V domains shown) VH: EVQLVESGAEVKKPGSSVKVSCKASGGPFRSYAISWVRQAPGQGPEWMGGIIPIFGTTKYAPKFQGRVTITADDFAGTVYMELSSLRSEDTAMYYCAKHMGYQVRETMDVWGKGTTVTVSS VL: QSVLTQPPSVSAAPGQKVTISCSGSSSNIGNDYVSWYQQLPGTAPKLLIYDNNKRPSGIPDRFSGSKSGTSATLGITGLQTGDEANYYCATWDRRPTAYVVFGGGTKLTVLG", "values": [{"measurement": "CR6261 binding signal", "setting": "[1]", "value": 450000}, {"measurement": "CR6261 binding signal", "setting": "[2]", "value": 499000}, {"measurement": "CR6261 binding signal", "setting": "[3]", "value": 220000}, {"measurement": "CR6261 binding signal", "setting": "[4]", "value": 199000}, {"measurement": "CR6261 binding signal", "setting": "[5]", "value": 304000}, {"measurement": "CR6261 binding signal", "setting": "[6]", "value": 417000}, {"measurement": "CR6261 binding signal", "setting": "[7]", "value": 182000}, {"measurement": "CR6261 binding signal", "setting": "[8]", "value": 132000}, {"measurement": "CR6261 binding signal", "setting": "[9]", "value": 212000}, {"measurement": "CR6261 binding signal", "setting": "[10]", "value": 880000}, {"measurement": "CR6261 binding signal", "setting": "[11]", "value": 311000}, {"measurement": "CR6261 binding signal", "setting": "[12]", "value": 92900}, {"measurement": "CR6261 binding signal", "setting": "[13]", "value": 345000}, {"measurement": "CR6261 binding signal", "setting": "[14]", "value": 113000}, {"measurement": "CR6261 binding signal", "setting": "[15]", "value": 287000}, {"measurement": "CR6261 binding signal", "setting": "[16]", "value": 343000}, {"measurement": "CR6261 binding signal", "setting": "[17]", "value": 207000}, {"measurement": "CR6261 binding signal", "setting": "[18]", "value": 242000}, {"measurement": "CR6261 binding signal", "setting": "[19]", "value": 409000}, {"measurement": "CR6261 binding signal", "setting": "[20]", "value": 329000}, {"measurement": "CR6261 binding signal", "setting": "[21]", "value": 833000}, {"measurement": "CR6261 binding signal", "setting": "[22]", "value": 286000}, {"measurement": "CR6261 binding signal", "setting": "[23]", "value": 132000}, {"measurement": "CR6261 binding signal", "setting": "[24]", "value": 335000}, {"measurement": "CR6261 binding signal", "setting": "[25]", "value": 959000}, {"measurement": "CR6261 binding signal", "setting": "[26]", "value": 855000}, {"measurement": "CR6261 binding signal", "setting": "[27]", "value": 583000}, {"measurement": "CR6261 binding signal", "setting": "[28]", "value": 274000}, {"measurement": "CR6261 binding signal", "setting": "[29]", "value": 415000}, {"measurement": "CR6261 binding signal", "setting": "[30]", "value": 285000}, {"measurement": "CR6261 binding signal", "setting": "[31]", "value": 396000}, {"measurement": "CR6261 binding signal", "setting": "[32]", "value": 90600}, {"measurement": "CR6261 binding signal", "setting": "[33]", "value": 117000}, {"measurement": "CR6261 binding signal", "setting": "[34]", "value": 111000}, {"measurement": "CR6261 binding signal", "setting": "[35]", "value": 115000}]}]}
